In general, Kd refers to a measure of binding affinity in units of concentration.

One assay deals with T1, mouse HVEM (mouse, UniProt Q80WM9).
T1 chain: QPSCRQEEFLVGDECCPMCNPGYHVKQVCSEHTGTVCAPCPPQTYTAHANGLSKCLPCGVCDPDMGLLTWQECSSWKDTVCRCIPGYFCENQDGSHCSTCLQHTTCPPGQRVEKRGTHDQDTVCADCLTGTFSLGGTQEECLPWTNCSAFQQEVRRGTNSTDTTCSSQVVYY
The assay can be described thus: ELISA.

A further assay concerns the target T2, human HVEM (human, UniProt Q92956).
T2 chain: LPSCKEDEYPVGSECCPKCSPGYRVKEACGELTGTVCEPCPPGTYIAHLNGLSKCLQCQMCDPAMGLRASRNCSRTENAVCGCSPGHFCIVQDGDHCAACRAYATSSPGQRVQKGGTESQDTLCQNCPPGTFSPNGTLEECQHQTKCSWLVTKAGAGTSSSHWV
The assay can be described thus: SPR. For orientation: SPR reads the build-up and loss of mass on a sensor chip optically.

B1: 26C3 (protein)
chain 1: QVQLQQPGSELVRPGASVKLSCKASGYTFTSYWMHWVKQRPGQGLEWIGDIYPGSDGTNYDEKFKSKATLTVDTSSSTAY
chain 2: DIQMTQTTSSLSASLGDRVTISCRASQDISNSLNWYQQKPDGTVKLLIYYTSRLHSGVPSRFSGSGSGTDYSLTISNLE
On to B1, for which, in the assay with mouse HVEM, the binding result is “no binding”.

B2: 52B7 (protein)
chain 1: QVQLKQSGPGLVQPSQSLSITCTVSGFSLTIYGVHWIRQSPGKGLEWLGVIWTGGNTDYNAAFMSRLSITKDNSKSQVFF
chain 2: EIVLTQSPALMAASPGEKVTITCSVSSNISSGNLHWYQQKSETSPKPWIYGTSNLASGVPVRFSGSRSGTSYSLTISSME
B2 registered a Kd in the assay with human HVEM of 0.705 pM. Also, the binding result with mouse HVEM was “no binding”.

B3: 22G5 (protein)
chain 1: EVQLQESGGGLVQPGGSRKLSCAASGFTFSSFGMHWVRQAPEKGLEWVAFISSGSSSIYYADTVKGRFTISRDNPRNTL
chain 2: DVVMTQTPLSLPVSLGDQASISCRSSQSLVHSNGNTYFHWYLQKPGQSPKLLIYKVSNRFSGVPDRFSGSGSGTDFTLKI
In the case of B3, in the assay with mouse HVEM, the binding result is given as “no binding”.

(Values after patent CN116715769A (dated 2023).)
